Paper PMC10634230, “The XIST lncRNA is a sex-specific reservoir of TLR7 ligands in SLE”

T1: TLR7 Fc chimera (recombinant human TLR7) (Homo sapiens, UniProt Q9NYK1 27-839)
T1 sequence: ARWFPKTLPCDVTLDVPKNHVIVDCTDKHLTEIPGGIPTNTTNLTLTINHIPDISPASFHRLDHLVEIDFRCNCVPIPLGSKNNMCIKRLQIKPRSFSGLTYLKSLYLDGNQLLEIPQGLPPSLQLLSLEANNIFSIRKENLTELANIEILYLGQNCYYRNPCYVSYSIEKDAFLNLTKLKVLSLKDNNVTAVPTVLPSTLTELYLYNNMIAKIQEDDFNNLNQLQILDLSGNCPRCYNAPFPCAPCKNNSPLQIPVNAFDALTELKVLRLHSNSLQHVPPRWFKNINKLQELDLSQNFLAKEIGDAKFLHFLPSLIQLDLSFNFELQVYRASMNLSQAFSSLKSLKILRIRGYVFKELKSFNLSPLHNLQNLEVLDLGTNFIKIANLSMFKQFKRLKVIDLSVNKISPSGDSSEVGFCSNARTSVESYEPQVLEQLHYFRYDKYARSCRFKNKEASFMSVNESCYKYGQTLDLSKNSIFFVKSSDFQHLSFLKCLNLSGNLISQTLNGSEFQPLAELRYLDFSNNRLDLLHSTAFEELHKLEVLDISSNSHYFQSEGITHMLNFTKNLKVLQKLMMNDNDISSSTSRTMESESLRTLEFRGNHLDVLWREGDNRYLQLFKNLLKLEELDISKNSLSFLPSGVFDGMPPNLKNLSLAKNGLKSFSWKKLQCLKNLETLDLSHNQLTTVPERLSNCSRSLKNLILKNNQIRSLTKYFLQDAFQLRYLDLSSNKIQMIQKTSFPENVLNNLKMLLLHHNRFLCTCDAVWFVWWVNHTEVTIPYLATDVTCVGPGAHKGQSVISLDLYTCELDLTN


Target: T1, TLR7 Fc chimera (recombinant human TLR7)
Test: fluorescence anisotropy; 10 uM HEPES (so in the source), 150 mM NaCl, 300 uM EDTA, 1 mM DTT, 1% glycerol; pH and temperature not stated; FA: 20 nM RNA, 10-300 nM TLR7, 10 min; EMSA: 100 ng RNA, 1 ug TLR7 in 20 uL, 30 min, 5% polyacrylamide gel
Conditions: protein: commercial; tags: Fc chimera; chain copies: 2; label: 5' FAM

| Binder | Kd | binding result |
| --- | --- | --- |
| AGCUUAACCUGUCCUUCAA (ssRNA) [RNA9.2s] | 292 nM | – |
| GUUGUCAAUGGUCCUUCAA (ssRNA) [XIST1.1] | 138 nM | – |
| UUGAAGGACAGGUUAAGCU (ssRNA) [RNA9.2a] | 752 nM | – |
| AAAAAAAAAAAAAAAAAAA (ssRNA) [polyA] | – | no binding |
